Measurements published in patent US20220235118A1 (IMMUNOME, published 2022).

Assays:
[1] = biological target: T1, SARS-CoV-2 Spike S1 domain D614G (SARS-CoV-2, UniProt P0DTC2 16-685); test: HTRF, soluble S1 construct
T1 construct: domain: S1

[2] = biological target: T2, SARS-CoV-2 Spike S1 domain A222S, D614G (SARS-CoV-2, UniProt P0DTC2 16-685); test: HTRF, soluble S1 construct
T2 construct: domain: S1; also called Spanish (A222S, D614G)

[3] = biological target: T3, SARS-CoV-2 Spike S1 domain K417N, E484K, N501Y, D614G (SARS-CoV-2, UniProt P0DTC2 16-685); test: HTRF, soluble S1 construct
T3 construct: domain: S1; also called S. African (K417N, E484K, N501Y, D614G); B.1.351

[4] = biological target: T4, SARS-CoV-2 Spike S1 domain ΔHV69/70, ΔY144, N501Y, A570D, D614G, P681H (SARS-CoV-2, UniProt P0DTC2 16-685); test: HTRF, soluble S1 construct
T4 construct: domain: S1; also called U.K. (B.1.1.7); DHV69/70, DY144, N501Y, A570D, D614G, P681H

[5] = biological target: T5, SARS-CoV-2 Spike S1 domain ΔHV69/70, Y453F, D614G (SARS-CoV-2, UniProt P0DTC2 16-685); test: HTRF, soluble S1 construct
T5 construct: domain: S1; also called Denmark (ΔHV69/70, Y453F, D614G); DHV69/70, Y453F, D614G

[6] = biological target: T6, SARS-CoV-2 Spike RBD N439K (SARS-CoV-2, UniProt P0DTC2 319-541); test: HTRF, soluble RBD construct
T6 construct: domain: RBD

[7] = biological target: T7, SARS-CoV-2 Spike RBD E406Q (SARS-CoV-2, UniProt P0DTC2 319-541); test: HTRF, soluble RBD construct
T7 construct: domain: RBD

[8] = biological target: T8, SARS-CoV-2 Spike RBD K417N (SARS-CoV-2, UniProt P0DTC2 319-541); test: HTRF, soluble RBD construct
T8 construct: domain: RBD

[9] = biological target: T9, SARS-CoV-2 Spike RBD N501Y (SARS-CoV-2, UniProt P0DTC2 319-541); test: HTRF, soluble RBD construct
T9 construct: domain: RBD

[10] = biological target: T10, SARS-CoV-2 Spike RBD A352S (SARS-CoV-2, UniProt P0DTC2 319-541); test: HTRF, soluble RBD construct
T10 construct: domain: RBD

[11] = biological target: T11, SARS-CoV-2 Spike RBD A475V (SARS-CoV-2, UniProt P0DTC2 319-541); test: HTRF, soluble RBD construct
T11 construct: domain: RBD

[12] = biological target: T12, SARS-CoV-2 Spike RBD Y453F (SARS-CoV-2, UniProt P0DTC2 319-541); test: HTRF, soluble RBD construct
T12 construct: domain: RBD

Binder	fold over background [1] [fold over background]	fold over background [2] [fold over background]	fold over background [3] [fold over background]	fold over background [4] [fold over background]	fold over background [5] [fold over background]	fold over background [6] [fold over background]	fold over background [7] [fold over background]	fold over background [8] [fold over background]	fold over background [9] [fold over background]	fold over background [10] [fold over background]	fold over background [11] [fold over background]	fold over background [12] [fold over background]
PR199_00255 (antibody, V domains shown, also called IMM20279; PR190_00255) VH: QVQLVESGGGVVQPGRSLRLSCAASGFTFSTYGMHWVRQAPGKGLEWVAVIWYNGINKHYADSVKGRFTISRDNSKNTLYLQMSSLRVEDTAVYYCARDWGTLTTLFDFWGQGTLVTVSS VL: DIQMTQSPSSLSASVGERATITCRASQSISSHLNWYQQKPGKAPKFLIYGASSLQSGVPSRFSGSGSGTDFTLTISSLQPEDFATYYCQQSYSTPPWTFGQGTKVEIK	11.2	9.3	9.48	7.29	9.63	6.09	10.9	7.29	6.15	8.26	7.64	
PR194_00453 (antibody, V domains shown) VH: QLQLQESGPGLVKPSETLSLTCTVSGGSISSSSSYWGWFRQPPGKGLGWIRSIYYSGSTYYNPSLKSRVTMSVDTSKNQFSLKLSSVTAADTAVYYCARAKFSVWDNYRYPFDYWGQGILVTVSS VL: not shown	9.55	9.21	9.57	9.06	9.45	1.05	0.99	1.1	1.03	1.11	1.06	0.987
PR201_00151 (antibody, V domains shown) VH: RVTLRESGPALVKPTQTLTLTCTFSGFSLNTSGMCVSWIRQPPGKALEWLARIDWDDDKYYSTSLETRLTISKDTSKNQVVLTMTNLDPVDTGTYYCARISIQSRGGGADYWGQGTLVTVSS VL: DIQMTQSPSSLSASVGDRVTITCRASQSISSYLHWYQQKSGKAPKLLIFVASTLQSGVPSRFSGSGSGTDFTLTISSLQPEDSAAYYCQQSYSPPWTFGQGTKVEIK	7.25	7.29	1.05	4.22	6.53	6.03	8.3	1.09	6.16	7.06	5.7	5.48
PR194_00292 (antibody, V domains shown) VH: QVQLQQWGAGLLKPSETLSLTCAVYGGSLSGYYWSWIRQPPGKGLEWIGEINHSGSTNHNPSLKSRVSISVDTSKNQFSLKLSSVTAADTAVYYCARAWKYSSSWYSGGIYYGMDVWGQGTTVTVSS VL: QSALTQPASVSGSPGQSITISCSGTSSDVGSYNLVSWYQQHPGKAPKLMIYEGTKRPSGVSNRFSSSKSGNTASLTISGLQAEDEADYYCCSYAGFSTWVFGGGTKLTVL	1.06	1.02	2.26	2.37	2.59	1.06	0.967	1.03	0.996	0.94	1.02	0.974
PR196_00413_a (antibody, V domains shown) VH: QVQLVQSGAEVKKPGSSVKVSCKASGGTFSSYAITWVRQAPGQGLEWMGGIIPIFGTANYAQKFQGRVTITADESTSTAYMELSSLRSEDTAVYYCASDYGDSPLGYWGQGTLVTVSS VL: not shown	9.92	8.74	9	6.39	9.68	1.07	1.02	1.06	1.08	1.07	1.01	1.06
PR194_00364_b (antibody, V domains shown) VH: EVQLVESGGGLVKPGGSLRLSCSASGFTFTTYTMNWVRQAPGKGLEWVSSISSTGLSIYYADSVKGRFTISRDNAKNSLYLQMNSLRAEDTAVYYCARDPSPTTIYYYYYMDVWGKGTTVTVSS VL: QSALTQPASVSGSPGQSITISCTGTSSDVGTYNLVSWYQHYPGKAPKLIIYEVSKRPSGVSDRFSGSKSGNTASLTISGLQAEDEADYYCCSYAGSTTGYVVFGGGTKLTVL										0.917		
PR197_00647 (antibody, V domains shown) VH: QVQLVESGGGVVQPGRSLRLSCAASGFTFSSYAMHWVRQAPGKGLQWVTLISYDGGDKYYADSVRGRFTISRDNSKNTLYLQMNSLRTEDTAVYYCARDRPQTGDWFPPIPTGVLDVWGQGTTVTVSS VL: DIQMTQSPSSLSASVGDRVTITCRASQGISNYLAWFQQKPGKAPKSLIYAASSLQSGVPSRFSGSESGTDFTLTISSLQPEDFATYYCQQYHSYPITFGQGTRLEIK	8.3	9.54	7.72	1.1	1.07	1.04	1.03	1.03	1.06	1.04	0.999	1.11
PR194_00068 (antibody, V domains shown) VH: EVQLLESGGGLVQPGGSLRLSCSASGFTFTNYAMSWVRQAPGKGLEWVSTISGSGGSTYYADSVKGRFTISRDNSKSTLFLQMNSLRAEDTAIYYCANSGPTGDLDYWGQGTLVTVSS VL: SYELTQPPSVSVSPGQTTLSLTCSGDKLGNKYVCWYQQKPGQSPVLVIYQDTKRPSGIPERVSGSNSGDTATLTISGTQAMDEADYYCQAWDSSTAVFGGGTKLTVL						1.06						
